The nanobody polyreactivity screen of Harvey et al. (2022)

experiment: yeast display, Sf9 membrane polyspecificity reagent, FACS + sequencing; frameworks hold sequencing errors
Summary of the method: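 Sorting gates, low and high (top ~1%), were placed on anti-HA fluorescence to track expression and on streptavidin fluorescence to track reagent binding. A clone's polyreactivity label is taken from the gate it came out of. The reagent was 10% biotinylated, detergent-solubilized Sf9 membrane, applied for 1 hour at 4 °C to galactose-induced yeast display cells.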

| Sequence | polyreactivity (PSR sort gate) |
| --- | --- |
| QVQLVESGGGLDQAGGSLRLSSAASGSIFSGYAMGWYRQAPGKERELVAAISSSGTRTYYADSVKGRFTISRDNAKNTVYLQMNSLKPEETAVYYCNAATSKVQFSGYGYWGQGTQVTVSS | high polyreactivity |
| QVQLVESGGGLDQAGGSLRLSSAASGSIFVDNAMGWYRQAPGKERELVAAISRRGGSTYYADSVKGRFTISRDNAKNTVYLQMNSLKPEDTAVYYCNKKNIQFYQGASDYWGQGTQVTVSS | high polyreactivity |
| QVQLVESGGGLDQAGGSLRLTCAASGIIFFEYAMGWYRQAPGKERELVAAISWRGGRTYYADSVKGRFTISRDNAKNSVYLQMNSLKPEDTAVYYCAADFRSWPYYPWSKYDYWGQGTQVTVSS | high polyreactivity |
| QVQLVESGGGLDQAGGSLRLTCAASGRIFGAYAMGWYRQAPGKEMELVAVISLSTGSTYYADSVKVRFTISRDNAKNTVYLQMKSLKPDDTAVYYCAVDTRFKWGWDYYYWGLGTQVTVSS | high polyreactivity |
| QVQLVESGGGLDQAGGSLSLSTAASGFTFYVKAMGLYRQAPGKEREWVAAISSSGTRTYYADSVKGRFTISRDNAKNSVYFQMKCLKPEYTAVYFCAARGQAYSGDRMYYWGQGTQVTVSS | high polyreactivity |
| QVQLVESGGGLDQAGGSRRLSGAASGSTFHGYDKGWYIQAPGKERELVAAITSSGDDTYYADSVKGRFTISRDNAKNTVYLKRNSLKPEDTAVYYCDAEYTEGYTHDYWGQGTKVTVSS | low polyreactivity |
| QVQLVESGGGLDQAGRSLRLSFAASGRTFDLYPMGWYRQAPGKERELVAAITNGETYADSVKGRFTISLDDAKNTVYLQMNSLKPEDTAVYYCAKYDPWFWRAEDYWGQGTQVTVSS | low polyreactivity |
| QVQLVESGGGLDQARGSLRLSCAASGFIFGRYAMGWYRQAPGKVRELVAAISRSGGSTHYADSVKGRFTISRDNAKNTVYLQMNSLKPEDTAVYYCNTYLTIWGYFYGYDYWGQGTQVTVSS | high polyreactivity |
| QVQLVESGGGLDQARGSLRLSCAASGRIFWRYAMGWYRQAPGKERELVASISSGGSTNYADSVKGRFTISRDNAKNTVYLQMNSLKPEDTAVYYCNAQAWHLGVITGRWNRYEYWGQGTQVTVSS | high polyreactivity |
| QVQLVESGGGLDQARGSLRLSCAASGSILRYYTMGWYRQAHGKERELVAAISYRGSSTYYADSVKGRFTISRDNAKNTVYLQMNSLKPEDTAVYYCARGGYYGYDYWGQGTQVTLSS | high polyreactivity |
| QVQLVESGGGLDQARGSLRLSCAASGSTFKRKPLGWYRQATGKERELVAAITQSGGSTYYADSVKGRFTISRDNAKNTVYLLMYSLKPEDTSVYYCAASYLRGRRYEYWGQGTQVTVSS | high polyreactivity |
| QVQLVESGGGLEQAGGSLRLSCAASGITLRVNAMGWYRQAPGKERELVAAITRGTNTYYADSVKGRFTISRDNAKNTVYLQMNSLKPEDTAVYYCAARLPYNAIGYYYWGQGTQVTVSS | low polyreactivity |
| QVQLVESGGGLEQAGGSLRLSCAASGLTFSVYAMGWYRQAPGKERELVAGITSSGGDTYYADSVKGRLTISRDNAKNTVYLQMNSLKPEDTAVYYCNAKYRTFVSKHDYWGQGTQVTVSS | low polyreactivity |
| QVQLVESGGGLFHAGGSLRLSCAASGIIFGGYTIGWYRQAPGKERELVAAISWSGVGTYYADSVKGRFTISRDNAKNTVYLQMNSLKPDDTAVYYCAAWAYYSDDDEYWGQGTQVTVSS | high polyreactivity |
| QVQLVESGGGLFHAGGSLRLSCSASGLTFDINAMGWYRQEPGKERELVAAISRSGGRTYYADSVKGRFTISRDNAKNTVFLQMNSLKPEDTAVYYCADRFIYGYDYWGQGTQVTVSS | high polyreactivity |
| QVQLVESGGGLFQAGGRLRLSCAASGRIFWLYAMGWYRQAPGKERELVAAITGIGGSTYYADSVKGRFTISRDNAKNTVYLQMNSLKPEDTAVYYCAARSPATYPSMGYWGQGTQGTVSS | low polyreactivity |
| QVQLVESGGGLFQAGGRLRLSCAATGSIFSVYTMGWYRQAPGKERELVATISFSVGRTYYADSVKGRFTISRDNEKNSVYLQMNSLKPEDTAVYYCNARSCGGYYHWGQGTQVTVSS | high polyreactivity |
| QVQLVESGGGLFQAGGSHRLSCAATGINFSEYAMGWYRQAPGKERELVAAISKSSGSTRYADSVKGRFTISRDNAKNTVFLQMNSLNPEDTAVYYCAARQYGPRYTYYYWGQGTQVTVSS | high polyreactivity |
| QVQLVESGGGLFQAGGSLRLSCAASGFIFPINAMGWYRQAPGKERELVAAITSGGRTNYADSVKGRFTISRDNAKNTVYLQMNSLKPEDTAVYYCNAVVFVLNVEYYPWLLNNYWGQGTQVTVSS | low polyreactivity |
| QVQLVESGGGLFQAGGSLRLSCAASGFIFSHYAMGWYRQAPGNDREFVATISKRGGSTTYADSVKGRFTISRDNAKNTVYFQMNSLKPVDTAVYDFAADYYPASAGFDYWGQGTQVTVSS | high polyreactivity |

| Sequence | polyreactivity (PSR sort gate) |
| --- | --- |
| QVQLVESGGGLFQAGGSLRLSCAASGFIFSYNAMGWYRQAPGKERELVAAISSSGGTTYYADSVKGRFTISRDNAKNTVYLQMNSLKPEDTAVYYCNARWHAEYDYWGQGTQVTVSA | low polyreactivity |
| QVQLVESGGGLFQAGGSLRLSCAASGFIFTRYAMGWYRQAPGKERELVAAISWSGGSTYYADSVKGRFTISRDNAKNTVYLQMNSLKPEDTAVYYCAADGSDSYDYWGQGTQVTVSS | low polyreactivity |
| QVQLVESGGGLFQAGGSLRLSCAASGFTFYGYAMAWYRHAPGKERELVAAITFRGDRTYYADSVKGRFTISRDNAKNTVYLQINSLKPEDTAVYYCAAVRPSGWYSYLSLYIVRRGYWGQGTQVTVSS | low polyreactivity |
| QVQLVESGGGLFQAGGSLRLSCAASGFTIYHNAMRWYRQEPGKERELVAAISSSGDSTYYADSVKGRFTISRDNAKNTVYLQMNSLKPEDTAVYYCNDYFYYLSLYYYYWFNYDYWGQGTQVTVSS | low polyreactivity |
| QVQLVESGGGLFQAGGSLRLSCAASGIIFRGNAMGWYRQATVKERELVAAISKSGGRTYYADSVKGRFTISRDNAKNTVYLEMICLKPEDSAVYYCAARFYAVGGYDYWGQGTQVTVSS | high polyreactivity |
| QVQLVESGGGLFQAGGSLRLSCAASGIIFYVNAMAWSRQAPGKERERVAVISRRGGSTNDADSVKGRFTISRDNAKNTVYLQMKSLKPEDTAVYYCDAGYRTAYRGSSYYYWGKGTQVTVSS | high polyreactivity |
| QVQLVESGGGLFQAGGSLRLSCAASGITFYYYTMGWYRQAPGKERELVAAISTRGGRTYYADSVKGRFTISRDNAKNTVYLQMNSLKPEDTAVYYCATYQSGVYASKRRLDYWGQGTQVTVSS | high polyreactivity |
| QVQLVESGGGLFQAGGSLRLSCAASGLTFVDNSMGWYRQAPGKEREFVAAITKRGGRTYYADSVKGRFTISRDNAKNTVYLQMTSLKPEDTAVYYCARESGNDSSRRLDYWGQGTQVTVSS | low polyreactivity |
| QVQLVESGGGLFQAGGSLRLSCAASGNTFLRNAMGWYRQPPWKERELVAAISRSGGRTYYADSVKGSFTISRDNAKNTVYLQMISLKPDDTAVYYCAVVTQFGDGYYWGQGTQVTVSS | high polyreactivity |
| QVQLVESGGGLFQAGGSLRLSCAASGRIFDYNVMGWYRQAPGKERELVADINGSGGGTNYADSVKGRFTISRDNAKNTVYLQMNSLKPEDTAVYYCNADSYEYHVPYYDYRYDYWGQGTQVTVSS | low polyreactivity |
| QVQLVESGGGLFQAGGSLRLSCAASGRIFGFYAMGWYRQAPGKERELVARITLSGGRTYYADSVKGRFTISRDNAKNTVYLQMNSLKPEDTAVYYCAADSIGRLWGYGYWGQGTQVTVSS | high polyreactivity |
| QVQLVESGGGLFQAGGSLRLSCAASGRIFNSNTMGWYRPAPGKDRELVARIDTGGGSTYADSVKGRFTISRDNAKNTVYLQMNSLQPEDTAVYHCNKIGRWRSWGSTSLVSMDYWGQGTKVTVSS | low polyreactivity |
| QVQLVESGGGLFQAGGSLRLSCAASGRTFGYYAMGWYRQAPGKERELVAAITGDATTYYADSVKGRFTISRDNAKNTVYLQMNSLQPEDTAVYYCDALFTPALSEYDYWGQGTQVTVSS | high polyreactivity |
| QVQLVESGGGLFQAGGSLRLSCAASGRTFVHNAMGWYRQAPGKERDLVAVITSGARTTYADSVKGRFTISRDNAKNTVYLQMNSLKPEDTAVYYFAAGTFSVIFSYKYRHYYYWGQGTQVTVSS | low polyreactivity |
| QVQLVESGGGLFQAGGSLRLSCAASGRTFYSNDMGWYRQAPGNERELVAAISWRSGSTHYADSVKGRFTISRDNAKNTVYFQMNSLKPEDTAVFYCAARRRDLVPHYYWGQGTQVTVSS | high polyreactivity |
| QVQLVESGGGLFQAGGSLRLSCAASGSIFDDYAMGWYRQAPGKERELVAAISSSGTSTYYADSVKGRFTISRDNAKNTVYLQMNSLKPEDTAVFYCAARSAILKSGYLMDYWGQGTQVTVSS | low polyreactivity |
| QVQLVESGGGLFQAGGSLRLSCAASGSIIRKYAMGWSIQAPGKERELVAAISRRTGNTYYADSVKGRFTISRDNAKNTVYLQMKSLKPEDTAVYYCAADYYSSSSWSEVDSWGQGTQVTVSS | high polyreactivity |
| QVQLVESGGGLFQAGGSLRLSCAASGSILTHYAMGWYRQAPGKERELVAGNTSGGTTNYADSVKGRFTISRDNAKNSVYLQMNSLKPEDTAVYYCNADVWICQRFETGYDFDYWGQGTQVTVSS | low polyreactivity |
| QVQLVESGGGLFQAGGSLRLSCAASGSISYYNAMGWYRQAPGKERELVATITDSGGSTYYADSVKGRFTISRDIAKNTVYLQMISLKPEDTAVYYCAVDFSEWYSIYDYWGQGTQVTVSS | low polyreactivity |
| QVQLVESGGGLFQAGGSLRLSCAASGSTFAPYAMGWYRHATGKERELVAAISNSGGSTYYADSVKGRFTISRDDAKNTVYLQMNCLKPEATAVLYCATLKYPYATSQGYDFWGQCTQVTVSS | high polyreactivity |
